T1: trypsin (Bos taurus, UniProt P00760)
T1 construct: gene PRSS1
T1 sequence (P00760 24-246): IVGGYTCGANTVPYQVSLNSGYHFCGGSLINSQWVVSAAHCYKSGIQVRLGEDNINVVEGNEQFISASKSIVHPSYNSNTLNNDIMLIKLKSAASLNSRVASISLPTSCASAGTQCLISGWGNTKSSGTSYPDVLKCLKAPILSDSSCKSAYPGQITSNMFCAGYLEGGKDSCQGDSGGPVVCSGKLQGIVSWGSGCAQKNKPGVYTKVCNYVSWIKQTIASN


Assays:
trypsin [1] = biological target: T1, trypsin; assay: Monoclonal phage TRF binding assay on trypsin (KnotBody clones and GlyAla mutants); conditions: for % reduction in binding signal: GlyAla mutant (EETI-II Pro3 to Gly, Arg4 to Ala) of the clone versus the clone, monoclonal phage, trypsin on streptavidin plates; for Tryspin binding signal (FU): monoclonal phage supernatant of round-2 clones, biotinylated trypsin on neutravidin plates
Method: Phage display technology facilitates isolation of binders to any given target from large combinatorial repertoires based on proteins and peptides that can be presented on the surface of filamentous phage^105. In order to isolate functional knottin-antibody fusions from the KnotBody libraries multiple rounds of phage display selections on trypsin (cognate antigen for the EETI-II donor) were carried out. Phage particles were prepared by rescuing KnotBody libraries using trypsin cleavable helper phage^102,106Two rounds of phage display selections were performed on 10 μg/ml biotinylated trypsin immobilised on Streptavidin (for Round-1) or Neutravidin (for round-2) coated Maxisorp™ immunotubes (Thermo Scientific, Cat No. 444202). In both rounds of selection, phage libraries were pre-incubated with streptavidin coated paramagnetic beads (Thermo Fisher Scientific, Cat. No. 11205D). These beads were removed prior to the addition the phage to the antigen tubes to limit the streptavidin binders entering the selection. Polyclonal phage preparations from round-2 selection outputs were analysed for trypsin binding using a time resolved fluorescence (TRF) binding assay. In this assay, polyclonal phage binding to biotinylated trypsin immobilised on neutravidin (Thermo Fisher Scientific, Cat. No 31000) coated Maxisorp™ plates (Thermo Scientific, Cat. No. 437111) was detected using a mouse anti-M13 antibody (GE Healthcare, Cat. No. 27-9420-01) followed by europium conjugated anti-mouse antibody (Perkin Elmer, Cat. No. AD0124).
In order to identify monoclonal KnotBodies with desired binding characteristics, 94 individual clones derived from 2 rounds of selection using EETI-II CDR1 or CDR2 libraries were picked into 96 well culture plates and phage were prepared from each clone. Methods for screening by monoclonal phage ELISA are known in the art^107. […] Clones with >3× binding signal above background were picked as positive clones and sequenced to identify unique clones. 14 and 42 unique binders were identified from EETI-II CDR1 and EETI-II CDR2 libraries respectively (Table 1). 18 binders from the EETI-II CDR2 library and 3 binders from the EETI-II-CDR1 library were chosen for further characterisation based on their VL and linker sequence diversity. These binders were assigned new clone identification numbers (Table 2).
The trypsin binding capability of EETI-II is attributed to proline (Pro3) and arginine (Arg4) residues present in its loop1 (GCPRILMRC; SEQ ID NO: 68). […] Monoclonal phage was prepared from the 21 selected clones and their mutant equivalents. […] Replacement of the trypsin-binding residues of EETI-II abolished the ability of all KnotBody clones to bind to trypsin (Table 3). In order to confirm that the loss of trypsin binding was not due to reduced expression or display of pIII fusion phage was prepared from 11 (randomly chosen) KnotBodies and their GlyAla variants were analysed on a western blot using an antibody which recognises the product of gene 3 (pIII) using an anti-pIII antibody (MoBiTec GmbH) (FIG. 6).

trypsin [2] = biological target: T1, trypsin; assay: KnotBody Fab TRF binding assay on trypsin; conditions: Fab format
trypsin [3] = biological target: T1, trypsin; assay: Monoclonal phage ELISA on trypsin, EET 5-3 framed KnotBodies; format: binding; conditions: value in brackets after the clone name
Source text: Following selection on trypsin, as described in example 3, positive clones were identified by monoclonal phage ELISA and their sequences determined. Examples of positive clones in CDR1 or CDR 2 of kappa and lambda light chains are shown in Table 29 with the linker sequences shown in lower case and the knottin donor in a 5-3 frame shown in italics. Also shown is the value of ELISA signal attained from monoclonal phage ELISA. The specificity of interaction was further confirmed by mutating the pair of Proline-Arginine residues involved in interaction with trypsin to alanine-alanine which diminished binding (as described in example 3).

Molecule	% reduction in binding signal (trypsin [1]) [%]	Tryspin binding signal (FU) (trypsin [1])	TRF signal for 0.6 ug/mL Fab (trypsin [2])	TRF signal for 2.4 ug/mL Fab (trypsin [2])	TRF signal for 10 ug/mL Fab (trypsin [2])	ELISA signal from monoclonal phage ELISA (trypsin [3])
KB_C09: KnotBody, EETI-II in VL CDR2; VL SEQ ID NO: 120 (antibody, V domains shown, EETI-II in VL CDR2; CDR2_C_08) VL: QSVLTQPPSVSEAPRQRVTITCSGSSSNIGNNAVNWYQQLPGKAPKLLIYAAGRCPRILMRCKQDSDCLAGCVCGPNGFCGGGSGVPDRFSGSIDSSSNSASLTISGLRAEDEADYYCQSYDSSNHWVFGGGTKLTVLGQP	100	89424	46788	204878	288988	
KB_B11: KnotBody, EETI-II in VL CDR1; VL SEQ ID NO: 86 (antibody, V domains shown, heavy chain missing; CDR1_F_02) VL: QSVLTQPPSVSEAPRQRVTITCGSRPCPRILMRCKQDSDCLAGCVCGPNGFCGSHNWYQQLPGSSPTTVIYEDNQRPSGVPDRFSGSIDRSSNSASLTISGLKTEDEADYYCQSYDSSNHRVVFGGGTKLTVLGQP	100	10286				
G11: KnotBody with EET 5-3 framed EETI-II in VL CDR2; SEQ ID NO: 317 (protein, G11 (27650)) QSVLTQPPSVSEAPRQRVTITCSGSSSNIGNNAVNWYQQLPGKAPKLLIYAAGGCGPNGFCGSGSDGGVCPRILMRCKQDSDCLAGCGQSSGVSDRFSGSKSGTSATLDITGLQTGDEADYYCGTWDNSLSVGVFGGGTKVTVLGQP						G11 (27650)
KB_C10: KnotBody, EETI-II in VL CDR2; VL SEQ ID NO: 123 (antibody, V domains shown, EETI-II in VL CDR2; CDR2_E_05) VL: QSVLTQPPSVSEAPRQRVTITCSGSSSNIGNNAVNWYQQLPGKAPKLLIYAAGPCPRILMRCKQDSDCLAGCVCGPNGFCGADSGVSDRFSGSKSGTSASLAITGLQAEDEGDYYCAAWDDSLNGLVFGGGTKVTVLGQP	100	118631	41709	146488	238066	
F01: KnotBody with EET 5-3 framed EETI-II in kappa VL CDR2; SEQ ID NO: 312 (protein, F01 (101798)) DIQMTQSPSSLSASVGDRVTITCRASQSISSYLNWYQQKPGKAPKLLIDAAGECGPNGFCGSGSDGGVCPRINMRCKQDSDCLAGCGRDSGVPSRFSGSGSGTDFTLTISSLQPEDFATYYCQQSYSTPWTFGQGTKVEIKRT						F01 (101798)
F07: KnotBody with EET 5-3 framed EETI-II in VL CDR2; SEQ ID NO: 314 (protein, F07 (72824)) QSVLTQPPSVSEAPRQRVTITCSGSSSNIGNNAVNWYQQLPGKAPKLLIYAAGGCGPNGFCGSGSDGGVCPRILMRCKQDSDCLAGCGGQSGVPDRFSGSKSGTSASLAISRLQSEDEADYYCAAWDDSLNAYVFGTGTKVTVLGQP						F07(72824)

— patent US20260043020A1, “BINDING MEMBERS WITH ALTERED DIVERSITY SCAFFOLD DOMAINS” (priority 2016, published 2026)
